Assays:
[1] = substrate: p-NP-C4; conditions: 35 °C
[2] = substrate: gfPET; assay: Proxy for plastic degradation [Released monomer concentration (HPLC/LC-MS) (TPA+MHET)]; conditions: pH 8

B1: unnamed (protein)
chain: MNFPRASRLMQAAVLGGLMAVSAAATAQTNPYARGPNPTAASLEASAGPFTVRSFTVSRPSGYGAGTVYYPTNAGGTVGAIAIVPGYTARQSSIKWWGPRLASHGFVVITIDTNSTLDQPSSRSSQQMAALRQVASLNGTSSSPIYGKVDTARMGVMGWSMGGGGSLISAANNPSLKAAAPQAPWDSSTNFSSVTVPTLIFACENDSIAPVNSSALPIYDSMSRNAKQFLEINGGSHSCANSGNSNQALIGKKGVAWMKRFMDNDTRYSTFACENPNSTRVSDFRTANCS
[1]; part of the chain shown
  Km: 240 µM
  kcat: 15.1 s⁻¹
  kcat/Km: 62900 M⁻¹ s⁻¹
[2]; 35 °C, 1 h, part of the chain shown
  Proxy for plastic degradation: 17 µM
[2]; 35 °C, 3 h, part of the chain shown
  Proxy for plastic degradation: 38 µM
[2]; 35 °C, 5 h, part of the chain shown
  Proxy for plastic degradation: 45 µM
[2]; 35 °C, 7 h, part of the chain shown
  Proxy for plastic degradation: 55 µM
[2]; 35 °C, 10 h, part of the chain shown
  Proxy for plastic degradation: 77 µM
[2]; 50 °C, 1 h, part of the chain shown
  Proxy for plastic degradation: 10 µM
[2]; 50 °C, 3 h, part of the chain shown
  Proxy for plastic degradation: 25 µM
[2]; 50 °C, 5 h, part of the chain shown
  Proxy for plastic degradation: 50 µM
[2]; 50 °C, 7 h, part of the chain shown
  Proxy for plastic degradation: 70 µM
[2]; 50 °C, 10 h, part of the chain shown
  Proxy for plastic degradation: 209 µM

B2: unnamed (protein)
chain: MDGVLWRVRTAALMAALLALAAWALVWASPSVEAQSNPYQRGPNPTRSALTADGPFSVATYTVSRLSVSGFGGGVIYYPTGTSLTFGGIAMSPGYTADASSLAWLGRRLASHGFVVLVINTNSRFDYPDSRASQLSAALNYLRTSSPSAVRARLDANRLAVAGHSMGGGGTLRIAEQNPSLKAAVPLTPWHTDKTFNTSVPVLIVGAEADTVAPVSQHAIPFYQNLPSTTPKVYVELDNASHFAPNSNNAAISVYTISWMKLWVDNDTRYRQFLCNVNDPALSDFRTNNRHCQ
[1]
  Km: 300 µM
  kcat: 21.6 s⁻¹
  kcat/Km: 71900 M⁻¹ s⁻¹
[2]; 35 °C, 1 h
  Proxy for plastic degradation: 5 µM
[2]; 35 °C, 3 h
  Proxy for plastic degradation: 14 µM
[2]; 35 °C, 5 h
  Proxy for plastic degradation: 39 µM
[2]; 35 °C, 7 h
  Proxy for plastic degradation: 95 µM
[2]; 35 °C, 10 h
  Proxy for plastic degradation: 182 µM
[2]; 50 °C, 1 h
  Proxy for plastic degradation: 480 µM
[2]; 50 °C, 3 h
  Proxy for plastic degradation: 1470 µM
[2]; 50 °C, 5 h
  Proxy for plastic degradation: 2380 µM
[2]; 50 °C, 7 h
  Proxy for plastic degradation: 3250 µM
[2]; 50 °C, 10 h
  Proxy for plastic degradation: 4130 µM
